Experimental findings from the supplement of paper PMC7125110 are described below.

± gives the standard error. This sample holds only a part of the variants without activity. A value given as a limit tells only on which side of the number the result lay.

B1: glmS ribozyme (parent)
chain: AUAAAAGCGCCAGAACUACAGAAAUGUAGUUGACGAGGAGGAGGUUUAUCGAAUUUUCGGCGGAUGCCUCCAAA

The first series covers variants of B1. As to the kind of experiment: self-cleavage kobs at 640 uM GlcN6P; higher = faster cleavage; RNA array. The following applies: with glucosamine-6-phosphate. In outline:
(§1)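 Glucosamine-6-phosphate, from 40 μM to 10 mM in HEPES/KCl/Mg(OAc)2 buffer, was flowed over sequenced MiSeq chips carrying barcoded ribozyme variants transcribed in situ by E. coli RNA polymerase. A hybridised Cy3 probe tracked the variants at 37 °C as tiles were imaged over ~14 h. kobs, kcat and KM were obtained by fitting normalised per-tile medians to exponential decays and then applying weighted Michaelis–Menten fits across concentrations.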
As for U49C A52U G62U, the “self-cleavage kobs at 640 uM GlcN6P” value was less than 1e-05 s⁻¹. For G40C A42C A48C A52U, the “self-cleavage kobs at 640 uM GlcN6P” value was less than 1e-05 s⁻¹. As to A33G C34U A42G G51U C58U G59C, the “self-cleavage kobs at 640 uM GlcN6P” value is less than 1e-05 s⁻¹. In the case of G38A G44A G51U U54G, the “self-cleavage kobs at 640 uM GlcN6P” value was less than 1e-05 s⁻¹. As for C8G G35U G37A A48U C67U, the “self-cleavage kobs at 640 uM GlcN6P” value is less than 1e-05 s⁻¹. As for G29U A39G A53U, the “self-cleavage kobs at 640 uM GlcN6P” value came out at 0.00124 ± 0.00019 s⁻¹.

Turning to G7A C10U C16U U65C, the “self-cleavage kobs at 640 uM GlcN6P” value is less than 1e-05 s⁻¹. On to G9U A12C A33G, for which the “self-cleavage kobs at 640 uM GlcN6P” value is less than 1e-05 s⁻¹. On to U30A G41U A48U, for which the “self-cleavage kobs at 640 uM GlcN6P” value is less than 1e-05 s⁻¹. With C11A G63A C67A U69C, the “self-cleavage kobs at 640 uM GlcN6P” value is less than 1e-05 s⁻¹. Same read-out and setting: for A6G G13C G32A G66U the value was less than 1e-05 s⁻¹; for C11A G38A G43U U54G, less than 1e-05 s⁻¹; for A14U C34A C70G, less than 1e-05 s⁻¹. Still for that read-out and setting: the result for G32U U46G C50G reads 0.000215 ± 4.7e-05 s⁻¹; that for G38U A42G A53U, less than 1e-05 s⁻¹; that for G29A G38U C50G, 0.00061 ± 0.00027 s⁻¹.

As to G29U A39C G66A, the “self-cleavage kobs at 640 uM GlcN6P” value is 0.000154 ± 3.3e-05 s⁻¹. Same read-out and setting: the result for C11A C16U A42U reads less than 1e-05 s⁻¹; that for U55G G59A C70A, less than 1e-05 s⁻¹; that for A14G A36C G66A, less than 1e-05 s⁻¹.

On to C11A A12C A42C, for which the “self-cleavage kobs at 640 uM GlcN6P” value was less than 1e-05 s⁻¹. Same read-out and setting: for A53C U55G C71G the value was 0.000116 ± 3.1e-05 s⁻¹; for C8U C70G, 0.0011 ± 0.00055 s⁻¹; for G43A G62U C67A, less than 1e-05 s⁻¹.

In another series the parent is B1. As to the kind of experiment: self-cleavage kobs at 2500 uM GlcN6P; higher = faster cleavage; RNA array. Conditions: with glucosamine-6-phosphate. Summed up: as §1
Turning to C8A G29C A42G U45C U46G, the “self-cleavage kobs at 2500 uM GlcN6P” value is less than 1e-05 s⁻¹. For the variant A33G C34U A42G G51U C58U G59C, the “self-cleavage kobs at 2500 uM GlcN6P” value was less than 1e-05 s⁻¹. On the same count and under the same terms, the result for A48U U69A reads 2.8e-05 ± 1.3e-05 s⁻¹. The same measure, in the same setting: for C8A G32A A33U U55A the value was less than 1e-05 s⁻¹; for U30C G40C G62A, less than 1e-05 s⁻¹; for A12C A36U U46G, less than 1e-05 s⁻¹. On the same count and under the same terms, for G35A G37U G51C the value was less than 1e-05 s⁻¹; for G35C A42U U56C C68G, less than 1e-05 s⁻¹.

U30C U45A U55A C67U: the “self-cleavage kobs at 2500 uM GlcN6P” value stood at 0.00196 ± 0.00072 s⁻¹. Same read-out and setting: the result for U30C G35A G37U C70A reads 0.000153 ± 4.9e-05 s⁻¹; that for G38A C50G U69G, 6.3e-05 ± 1.7e-05 s⁻¹; that for C11G G41U U57A, less than 1e-05 s⁻¹. As for G37C C50G U54G G63U A64U, the “self-cleavage kobs at 2500 uM GlcN6P” value turned out to be 6.2e-05 ± 3e-05 s⁻¹. The same measure, in the same setting: for A6C U55G G59U C61A A64C the value was less than 1e-05 s⁻¹. On the same count and under the same terms, for C16A U56G C70U the value was 0.000265 ± 6e-05 s⁻¹. Regarding A14U G38C A42U, the “self-cleavage kobs at 2500 uM GlcN6P” value is less than 1e-05 s⁻¹. Same read-out and setting: for C10U U31G A42C the value was less than 1e-05 s⁻¹.

On to A15U G51C C71U, for which the “self-cleavage kobs at 2500 uM GlcN6P” value is less than 1e-05 s⁻¹. Same read-out and setting: for C8G G35U G37A A48U C67U the value was less than 1e-05 s⁻¹; for G44U G62C G66A C67G, less than 1e-05 s⁻¹. The same measure, in the same setting: the result for C8G C10A G44U reads less than 1e-05 s⁻¹; that for A15C G41U U57C A64U, less than 1e-05 s⁻¹; that for G9U A12C A33G, less than 1e-05 s⁻¹. Regarding A14G G40C G41C A48G C71G, the “self-cleavage kobs at 2500 uM GlcN6P” value is less than 1e-05 s⁻¹. Same read-out and setting: for C34U G35U G62C the value was less than 1e-05 s⁻¹; for C10U G32A G37A A42U C50A U69G, less than 1e-05 s⁻¹. The same measure, in the same setting: the result for G38U A42U U49A reads less than 1e-05 s⁻¹; that for C10G A42G A48C, less than 1e-05 s⁻¹. Same read-out and setting: the result for U30A G41U A48U reads less than 1e-05 s⁻¹; that for A6G G13C G32A G66U, less than 1e-05 s⁻¹; that for A15U U49G G66U, less than 1e-05 s⁻¹. G9C G60A C67U: the “self-cleavage kobs at 2500 uM GlcN6P” value is less than 1e-05 s⁻¹. The same measure, in the same setting: the result for U31C A42U A52C C71A reads less than 1e-05 s⁻¹.

A14U C34A C70G: the “self-cleavage kobs at 2500 uM GlcN6P” value is less than 1e-05 s⁻¹.

As to G37U G51C A52G C61U C67U, the “self-cleavage kobs at 2500 uM GlcN6P” value is less than 1e-05 s⁻¹.

Turning to U31A A52G C70G, the “self-cleavage kobs at 2500 uM GlcN6P” value amounted to 5.02e-05 ± 1.1e-05 s⁻¹. On the same count and under the same terms, for A15C U31C C71A the value was 0.000185 ± 3.9e-05 s⁻¹; for G32U U46G C50G, 9.4e-05 ± 3.4e-05 s⁻¹; for C10A A33U A48U, less than 1e-05 s⁻¹.

With A14U C16A U31G G32U, the “self-cleavage kobs at 2500 uM GlcN6P” value was found to be 0.000112 ± 4.4e-05 s⁻¹. Still for that read-out and setting: the result for G9U C10U C34U U46A reads less than 1e-05 s⁻¹. With A15C G38A C67U, the “self-cleavage kobs at 2500 uM GlcN6P” value was less than 1e-05 s⁻¹.

As to A14U U46C U47G, the “self-cleavage kobs at 2500 uM GlcN6P” value worked out at 8.01e-05 ± 2.2e-05 s⁻¹. For A36G G43U C70G, the “self-cleavage kobs at 2500 uM GlcN6P” value was less than 1e-05 s⁻¹.

With G7U G29C A42C, the “self-cleavage kobs at 2500 uM GlcN6P” value was less than 1e-05 s⁻¹.

Regarding A36U G44A A48C U57C, the “self-cleavage kobs at 2500 uM GlcN6P” value was less than 1e-05 s⁻¹. The same measure, in the same setting: for C58U A64U C67G the value was less than 1e-05 s⁻¹. Still for that read-out and setting: the result for G43U G44U G60A A64G C67A C71G reads less than 1e-05 s⁻¹. Same read-out and setting: for U30A G37C U65G G66U the value was less than 1e-05 s⁻¹; for C16U C34A G41A C68U C71A, less than 1e-05 s⁻¹; for A14U C16A G63A, less than 1e-05 s⁻¹.

For the variant G29U A39C G66A, the “self-cleavage kobs at 2500 uM GlcN6P” value stood at 0.000178 ± 5.1e-05 s⁻¹. Still for that read-out and setting: for U55G G59A C70A the value was less than 1e-05 s⁻¹. Take A6G C34U A36C: the “self-cleavage kobs at 2500 uM GlcN6P” value was less than 1e-05 s⁻¹. Consider G29A U65C, for which the “self-cleavage kobs at 2500 uM GlcN6P” value worked out at 6.71e-05 ± 1.9e-05 s⁻¹.

On to C11A A12C A42C, for which the “self-cleavage kobs at 2500 uM GlcN6P” value was less than 1e-05 s⁻¹. Consider U46C G66A C70U, for which the “self-cleavage kobs at 2500 uM GlcN6P” value was found to be 0.00157 ± 0.00039 s⁻¹. Same read-out and setting: for A36U G38A U47C the value was less than 1e-05 s⁻¹. On the same count and under the same terms, the result for C10A A53U G60U reads 8.13e-05 ± 1.6e-05 s⁻¹. On the same count and under the same terms, for U30C A36U A48C the value was less than 1e-05 s⁻¹; for C16A U30A U65A, 5.07e-05 ± 1.8e-05 s⁻¹; for G43A G62U C67A, less than 1e-05 s⁻¹.

In another series the parent is B1. The series is described as follows: self-cleavage kobs at 10000 uM GlcN6P; higher = faster cleavage; RNA array. The following applies: with glucosamine-6-phosphate. In outline:
as §1
For the variant C8A G29C A42G U45C U46G, the “self-cleavage kobs at 10000 uM GlcN6P” value was less than 1e-05 s⁻¹.

In the case of G40C A42C A48C A52U, the “self-cleavage kobs at 10000 uM GlcN6P” value was less than 1e-05 s⁻¹. The same measure, in the same setting: the result for A14U G38C A42U reads less than 1e-05 s⁻¹. Same read-out and setting: the result for U31A A52G C70G reads 6.16e-05 ± 1.8e-05 s⁻¹; that for A14U C16A U31G G32U, 9.26e-05 ± 2.2e-05 s⁻¹; that for G29A U65C, 8.99e-05 ± 3.1e-05 s⁻¹. The same measure, in the same setting: the result for A36U G38A U47C reads less than 1e-05 s⁻¹.
